Literature values as cited in publication PMC4507496.
Like-named read-outs stand apart in the source and are kept apart here.

How the values were obtained:
ATG7 (Homo sapiens) [1] = target: ATG7 (Homo sapiens) (UniProt O95352); settings: cited from earlier work
ATG7 (Homo sapiens) [2] = target: ATG7 (Homo sapiens) (UniProt O95352); settings: cited from earlier work; remark: listed apart in the source

Sequence of ATG7 (Homo sapiens) (O95352 2-703): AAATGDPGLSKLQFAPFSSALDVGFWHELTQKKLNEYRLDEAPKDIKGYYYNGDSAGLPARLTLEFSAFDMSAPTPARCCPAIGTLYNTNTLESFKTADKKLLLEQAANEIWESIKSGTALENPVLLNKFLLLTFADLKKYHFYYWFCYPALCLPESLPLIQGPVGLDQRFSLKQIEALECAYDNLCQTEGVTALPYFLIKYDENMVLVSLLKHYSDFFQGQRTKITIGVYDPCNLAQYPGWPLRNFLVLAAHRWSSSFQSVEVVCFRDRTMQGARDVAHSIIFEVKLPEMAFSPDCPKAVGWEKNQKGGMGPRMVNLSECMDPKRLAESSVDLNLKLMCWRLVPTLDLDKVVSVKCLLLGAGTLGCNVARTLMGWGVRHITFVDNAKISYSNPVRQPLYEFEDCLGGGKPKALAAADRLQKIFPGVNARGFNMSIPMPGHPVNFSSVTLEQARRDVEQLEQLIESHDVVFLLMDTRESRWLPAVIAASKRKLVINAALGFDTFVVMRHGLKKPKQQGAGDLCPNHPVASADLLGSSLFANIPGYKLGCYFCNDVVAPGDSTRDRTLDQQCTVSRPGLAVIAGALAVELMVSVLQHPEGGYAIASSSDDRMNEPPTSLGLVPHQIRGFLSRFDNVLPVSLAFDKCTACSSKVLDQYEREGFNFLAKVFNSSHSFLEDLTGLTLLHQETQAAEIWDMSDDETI
Sequence of ATG3 (Q9NT62 whole entry): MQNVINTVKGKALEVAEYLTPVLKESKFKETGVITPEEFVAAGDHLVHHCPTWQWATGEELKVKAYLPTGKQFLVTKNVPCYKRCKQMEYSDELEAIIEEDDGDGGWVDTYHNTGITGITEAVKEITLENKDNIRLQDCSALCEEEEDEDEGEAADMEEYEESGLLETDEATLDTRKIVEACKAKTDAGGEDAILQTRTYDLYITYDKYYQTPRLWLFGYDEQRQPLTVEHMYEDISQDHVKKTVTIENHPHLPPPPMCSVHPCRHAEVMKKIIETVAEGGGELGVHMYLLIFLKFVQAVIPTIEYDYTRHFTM
Sequence of ATG3 flexible region flexible region (Q9NT62 90-190): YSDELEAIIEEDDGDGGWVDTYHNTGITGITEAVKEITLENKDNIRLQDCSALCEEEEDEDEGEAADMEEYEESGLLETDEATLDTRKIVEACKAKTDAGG

In the case of “ATG3 flexible region flexible region (from UniProt Q9NT62)”, the Kd (ATG7 (Homo sapiens) [1]) is given as over 70000 nM.
In the case of ATG3 (from UniProt Q9NT62), the Kd (ATG7 (Homo sapiens) [2]) is listed as 2200 nM.
